Data as given in IntAct's records for PubMed 23177925.

B1: Cell division control protein 13 (Saccharomyces cerevisiae), P32797 (parent)
chain: MDTLEEPECPPHKNRIFVSSSKDFEGYPSKAIVPVQFVALLTSIHLTETKCLLGFSNFERRGDQSQEDQYLIKLKFKDRGSERLARITISLLCQYFDIELPDLDSDSGASPTVILRDIHLERLCFSSCKALYVSKHGNYTLFLEDIKPLDLVSVISTISTKSTNSSKHSSSELISECDLNNSLVDIFNNLIEMNRDEKNRFKFVKLIHYDIELKKFVQDQQKVLSQKSKAAAINPFFVPNRLGIPYIESQNEFNSQLMTLNVDEPTTDISNMGEEMHDSADPIEDSDSSTTSSTGKYFSSKSYIQSQTPERKTSVPNNWHDDDSGSKRKRKLSFHSPNASSIRKAISYEQLSLASVGSVERLEGKIVGMNPPQFASINEFKYCTLKLYFTQLLPNVPDKVLVPGVNCIEIVIPTRERICELFGVLNCQSDKISDILLLEKPDRISVEVERILWDNDKTASPGMAVWSLKNISTDTQAQAQVQVPAQSSASIDPSRTRMSKMARKDPTIEFCQLGLDTFETKYITMFGMLVSCSFDKPAFISFVFSDFTKNDIVQNYLYDRYLIDYENKLELNEGFKAIMYKNQFETFDSKLRKIFNNGLRDLQNGRDENLSQYGIVCKMNIKVKMYNGKLNAIVRECEPVPHSQISSIASPSQCEHLRLFYQRAFKRIGESAISRYFEEYRRFFPIHRNGSHLAKLRFDEVKHEPKKSPTTPALAEHIPDLNADVSSFDVKFTDISSLLDSSARLPRPQQTHKSNTLYSCEGRIIAIEYHASDLCFHITNELPLLQTRGLAPERVLQLHIITSKNFAYFFNRSSAYLQRQPLEEKYTQLAQFLGHSFKFNITSSLTLFPDTTVALQIWCPIECTFRELQQQLAHPKVAAAPDSGSLDCAINATVNPLRLLAAQNGVTVKKEEDNDDDAGAVPTS
partner: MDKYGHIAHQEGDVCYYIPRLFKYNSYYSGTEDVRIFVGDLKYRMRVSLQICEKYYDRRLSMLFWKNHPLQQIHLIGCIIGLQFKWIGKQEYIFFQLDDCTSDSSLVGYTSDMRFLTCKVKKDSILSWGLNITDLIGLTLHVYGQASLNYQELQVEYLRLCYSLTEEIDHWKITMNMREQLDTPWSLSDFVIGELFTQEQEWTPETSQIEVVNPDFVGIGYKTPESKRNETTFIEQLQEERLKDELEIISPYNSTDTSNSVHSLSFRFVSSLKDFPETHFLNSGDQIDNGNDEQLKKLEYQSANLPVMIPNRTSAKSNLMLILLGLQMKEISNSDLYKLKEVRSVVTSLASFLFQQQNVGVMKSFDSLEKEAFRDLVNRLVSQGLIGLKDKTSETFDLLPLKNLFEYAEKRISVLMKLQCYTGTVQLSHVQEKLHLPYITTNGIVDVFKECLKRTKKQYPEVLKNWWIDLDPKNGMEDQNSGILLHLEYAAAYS

Variants of: B1
Conditions: with stn1_yeast STN1, P38960

Variant	effect of a mutation on the interaction
P371S;C383S	disrupting interaction strength
C383A;M463A	disrupting interaction strength
C383S;Y388A	disrupting interaction strength
C383S;L401A	disrupting interaction strength
